Test results published in IntAct's records for PubMed 23105096.

B1: Ras-related protein Rab-26 (Homo sapiens), Q9ULW5 (parent)
chain: MSRKKTPKSKGASTPAASTLPTANGARPARSGTALSGPDAPPNGPLQPGRPSLGGGVDFYDVAFKVMLVGDSGVGKTCLLVRFKDGAFLAGTFISTVGIDFRNKVLDVDGVKVKLQMWDTAGQERFRSVTHAYYRDAHALLLLYDVTNKASFDNIQAWLTEIHEYAQHDVALMLLGNKVDSAHERVVKREDGEKLAKEYGLPFMETSAKTGLNVDLAFTAIAKELKQRSMKAPSEPRFRLHDYVKREGRGASCCRP

Variants of: B1
Conditions: with ada2b_human ADRA2B

| Variant | effect of a mutation on the interaction |
| --- | --- |
| N177I | decreasing interaction strength |
| T77N | decreasing interaction strength |

Variants of: B1
Conditions: with ada2b_human ADRA2B
Remark: another data set of the same source

| Variant | effect of a mutation on the interaction |
| --- | --- |
| N177I | disrupting interaction strength |
